Measurements from US10434147B2, “Treatment type 2 diabetes mellitus patients” (Sanofi-Aventis Deutschland GmbH, priority 2015, dated 2019).

Legend:
[1] = tested on: Patients with Type 2 Diabetes Insufficiently Controlled with Insulin Glargine with or without Metformin; assay: Treatment-emergent adverse events, 26-week study; format: in vivo, human; settings: in vivo
From the text: (§1) FIG. 6—Graphical study design. ^1 Insulin glargine should be injected subcutaneously once daily at dinner or breakfast time (according to patient's/investigators' preference). […] Meal used for insulin glulisine dosing should remain the same throughout the 26-week treatment period. ^4 Injection of insulin glulisine prior to breakfast, lunch and dinner.
(§2) Co-primary endpoints at 26 weeks were (1) non-inferiority (95% CI upper bound <0.4%) in HbA1c reduction with LIXI vs GLU-1 and (2) for LIXI vs GLU-3, either non-inferiority in HbA1c reduction (2a) OR superiority (one-sided α≤0.025) in body weight change (2b). FPG, PPG, IG dose, composite outcomes, AEs, and hypoglycemia were assessed.

[2] = tested on: Patients with Type 2 Diabetes Insufficiently Controlled with Insulin Glargine with or without Metformin; assay: Body weight, 26-week study; format: in vivo, human
From the text: as §1, §2

[3] = tested on: Patients with Type 2 Diabetes Insufficiently Controlled with Insulin Glargine with or without Metformin; set-up: species or system human; settings: in vivo
From the text: Clinical symptoms that are considered to result from a hypoglycemic episode are, e.g., increased sweating, nervousness, asthenia/weakness, tremor, dizziness, increased appetite, palpitations, headache, sleep disorder, confusion, seizures, unconsciousness, coma.
as §2

[4] = Baseline (before IMP), mITT population
[5] = Week 26 (LOCF), mITT population

Insulin Glulisine TID: insulin glulisine three times daily, added to insulin glargine ± metformin (comparator arm)
Patients with treatment emergent SAE: Penile infection [1]: 0 n (%)
Patients with treatment emergent SAE: Renal and urinary disorders (SOC) [1]: 0 n (%)
Patients with treatment emergent SAE: Renal failure [1]: 0 n (%)
Patients with treatment emergent SAE: Renal failure acute [1]: 0 n (%)
Patients with treatment emergent SAE: Septic arthritis staphylococcal [1]: 0 n (%)
Patients with treatment emergent SAE: Skin and subcutaneous tissue disorders (SOC) [1]: 1 (0.3%) n (%)
Patients with treatment emergent SAE: Skin ulcer haemorrhage [1]: 1 (0.3%) n (%)
Patients with treatment emergent SAE: Uterine cancer [1]: 0 n (%)
Patients with treatment emergent SAE: Vascular disorders (SOC) [1]: 1 (0.3%) n (%)
TEAE leading to permanent treatment discontinuation: Abdominal pain [1]: 0 n (%)
TEAE leading to permanent treatment discontinuation: Any class [1]: 3 (1.0%) n (%)
TEAE leading to permanent treatment discontinuation: Ascites [1]: 0 n (%)
TEAE leading to permanent treatment discontinuation: Blood and lymphatic system disorders (SOC) [1]: 0 n (%)
TEAE leading to permanent treatment discontinuation: Blood glucose decreased [1]: 0 n (%)
TEAE leading to permanent treatment discontinuation: Cardiac disorders (SOC) [1]: 1 (0.3%) n (%)
TEAE leading to permanent treatment discontinuation: Cardiac failure chronic [1]: 1 (0.3%) n (%)
TEAE leading to permanent treatment discontinuation: Cough [1]: 0 n (%)
TEAE leading to permanent treatment discontinuation: Decreased appetite [1]: 0 n (%)
TEAE leading to permanent treatment discontinuation: Dehydration [1]: 0 n (%)
TEAE leading to permanent treatment discontinuation: Diabetic bullosis [1]: 0 n (%)
TEAE leading to permanent treatment discontinuation: Diarrhoea [1]: 0 n (%)
TEAE leading to permanent treatment discontinuation: Dyspepsia [1]: 0 n (%)
TEAE leading to permanent treatment discontinuation: Epigastric discomfort [1]: 0 n (%)
TEAE leading to permanent treatment discontinuation: Gastric ulcer haemorrhage [1]: 0 n (%)
TEAE leading to permanent treatment discontinuation: Gastrointestinal disorders (SOC) [1]: 0 n (%)
TEAE leading to permanent treatment discontinuation: Headache [1]: 0 n (%)
TEAE leading to permanent treatment discontinuation: Hepatic mass [1]: 0 n (%)
TEAE leading to permanent treatment discontinuation: Hepatobiliary disorders (SOC) [1]: 0 n (%)
TEAE leading to permanent treatment discontinuation: Hot flush [1]: 0 n (%)
TEAE leading to permanent treatment discontinuation: Hypoglycaemia [1]: 0 n (%)
TEAE leading to permanent treatment discontinuation: Immune system disorders (SOC) [1]: 1 (0.3%) n (%)
TEAE leading to permanent treatment discontinuation: Invasive ductal breast carcinoma [1]: 0 n (%)
TEAE leading to permanent treatment discontinuation: Investigations (SOC) [1]: 0 n (%)
TEAE leading to permanent treatment discontinuation: Lymphadenopathy [1]: 0 n (%)
TEAE leading to permanent treatment discontinuation: Metabolism and nutrition disorders (SOC) [1]: 0 n (%)
TEAE leading to permanent treatment discontinuation: Metastases to liver [1]: 0 n (%)
TEAE leading to permanent treatment discontinuation: Metastases to peritoneum [1]: 0 n (%)
TEAE leading to permanent treatment discontinuation: Nasal congestion [1]: 0 n (%)
TEAE leading to permanent treatment discontinuation: Nausea [1]: 0 n (%)
TEAE leading to permanent treatment discontinuation: Neoplasms benign, malignant and unspecified (incl cysts and polyps) (SOC) [1]: 0 n (%)
TEAE leading to permanent treatment discontinuation: Nervous system disorders (SOC) [1]: 0 n (%)
TEAE leading to permanent treatment discontinuation: Pancreatic carcinoma metastatic [1]: 0 n (%)
TEAE leading to permanent treatment discontinuation: Renal and urinary disorders (SOC) [1]: 0 n (%)
TEAE leading to permanent treatment discontinuation: Renal failure [1]: 0 n (%)
TEAE leading to permanent treatment discontinuation: Respiratory, thoracic and mediastinal disorders (SOC) [1]: 0 n (%)
TEAE leading to permanent treatment discontinuation: Seasonal allergy [1]: 1 (0.3%) n (%)
TEAE leading to permanent treatment discontinuation: Skin and subcutaneous tissue disorders (SOC) [1]: 1 (0.3%) n (%)
TEAE leading to permanent treatment discontinuation: Skin ulcer haemorrhage [1]: 1 (0.3%) n (%)
TEAE leading to permanent treatment discontinuation: Thrombosis [1]: 0 n (%)
TEAE leading to permanent treatment discontinuation: Tremor [1]: 0 n (%)
TEAE leading to permanent treatment discontinuation: Vascular disorders (SOC) [1]: 0 n (%)
TEAE leading to permanent treatment discontinuation: Vomiting [1]: 0 n (%)
Total number of patients with any event adjudicated as pancreatitis by PSAC [1]: 0 n (%)
Body weight, Change from baseline to Week 26 (LOCF), LS Mean (SE) ([2]; ANCOVA, mITT population): 1.37 (0.271) kg
Body weight change to Week 26, LS Mean difference (SE) of Lixisenatide vs. the labelled insulin glulisine arm ([2]; ANCOVA, mITT population, p <.0001): −1.99 (0.305) kg
Body Weight, BL mean ± SD ([2]; BL, mITT, Example 2 table): 90.0 ± 17.2 kg
Body weight, Baseline, Mean (SD) [2, 4]: 90.00 (17.21) kg
Body weight, Baseline, Median [2, 4]: 88.70 kg
Body weight, Week 26 (LOCF), Mean (SD) [2, 5]: 91.29 (17.27) kg
Body weight, Week 26 (LOCF), Median [2, 5]: 90.50 kg
Body Weight, Week 26 (LOCF) mean ± SD ([2]; Week 26 (LOCF), mITT, Example 2 table): 91.3 ± 17.3 kg
Body Weight, LS mean ± SE change from BL ([2]; Week 26, mITT, Example 2 table): 1.4 ± 0.3 kg
Body Weight, LS mean treatment difference (lixisenatide vs the labelled arm) ([2]; Week 26, mITT, p < 0.0001, Example 2 table): -2.0 kg
Body weight, Change from baseline to Week 26 (LOCF), Mean (SD) ([2]; mITT population): 1.29 (2.80) kg
Body weight, Change from baseline to Week 26 (LOCF), Median ([2]; mITT population): 1.20 kg
Any symptomatic hypoglycemia: Number of events [3]: 600
Any symptomatic hypoglycemia: Number of events per 100 patient years [3]: 410.4 per 100 patient years
Any symptomatic hypoglycemia: Number of patients with events per 100 patient years [3]: 90.3 per 100 patient years
Documented Symptomatic Hypoglycemia at Week 26, % pts [3]: 44.6 (p = 0.001) % pts
Documented Symptomatic Hypoglycemia at Week 26, No. of events [3]: 595
Documented Symptomatic Hypoglycemia at Week 26, No. of events/pt years [3]: 4.1 events/pt years
Severe Hypoglycemia, no. of pts with events [3]: 0
